Test results taken from patent US20130323786A1.

Tests used:
[1] = target: human Fc receptor CD64-GST fusion protein (human) (UniProt P12314); experiment: ALPHA competition assay: test antibody competes with biotinylated wild-type IgG1 (m7) for the receptor-GST fusion; panel title huCD64 [continued) D]
[2] = target: human Fc receptor CD16-GST fusion protein (human) (UniProt P08637); experiment: ALPHA competition assay: test antibody competes with biotinylated wild-type IgG1 (m7) for the receptor-GST fusion; panel title huCD16a V
Chain of human Fc receptor CD16-GST fusion protein (human) (P08637 17-208): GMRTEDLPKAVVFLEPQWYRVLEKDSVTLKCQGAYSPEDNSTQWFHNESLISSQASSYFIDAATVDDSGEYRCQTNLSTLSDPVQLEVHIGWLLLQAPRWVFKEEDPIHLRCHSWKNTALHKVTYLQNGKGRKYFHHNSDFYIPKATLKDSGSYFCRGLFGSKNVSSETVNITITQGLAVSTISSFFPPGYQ

LINGO-1 (human) = LINGO-1 (human) (UniProt Q96FE5); experiment: Cell bridging assay; fit of an essentially flat control curve (see non_binding); the axis on the sheet has no unit, µg/mL is from paragraph 391

Chain of human Fc receptor CD64-GST fusion protein (human) (P12314 16-292 limits assumed): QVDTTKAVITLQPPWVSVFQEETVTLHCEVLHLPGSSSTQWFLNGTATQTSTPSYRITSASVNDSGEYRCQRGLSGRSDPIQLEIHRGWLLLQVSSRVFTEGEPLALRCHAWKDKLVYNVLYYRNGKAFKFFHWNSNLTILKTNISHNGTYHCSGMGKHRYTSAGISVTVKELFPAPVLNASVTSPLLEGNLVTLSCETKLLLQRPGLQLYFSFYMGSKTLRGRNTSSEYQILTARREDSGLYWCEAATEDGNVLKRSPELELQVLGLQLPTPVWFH

IC50 [1] | IC50 [2] | C (midpoint parameter of the printed 4-parameter fit) (LINGO-1 (human)) | Substance
25 mg/L | 62 mg/L | – | agly 5c8 T299A (JF) (antibody)
– | – | 3.55 µg/mL | huIgG1 (antibody)
